Series [1] relates to isolated human neutrophils (formyl peptide and tuftsin receptors). Nature of the series: Neutrophil binding, saturation assay. The settings on record: for Kd: TNF-α treated human neutrophils, 25° C., 90 min, saturation assay. How it is done:
Human tumor necrosis factor-α (TNF-α) was procured from Perpotech, and fMLF was purchased from Sigma. Aliquots of both samples were taken (TNF-α, 10 U/mL, and fMLF, 10 mM) and stored at −20° C. For every assay the solutions were thawed to ambient temperature and freshly diluted with […] (HA) buffer before use. Multiscreen high-throughput screening (HTS) with glass fiber filter (FC) 96-well plates, type C, with […] glass filters were purchased from Millipore. Filtration from 96-well plates was performed under vacuum on a Brandel filtration device. The membranes from each well were collected by punching with the Millipore Multiscreen punching instrument. The radioactivity from ^99mTc-bound ligand was measured with either Minaxi (Packard), Autogamma 5000 series (Packard), or Wallac 1420 Wizard (Perkin-Elmer) γ-counters. Radioactivity was measured for 1 min per sample and was not corrected for decay.
Human neutrophils were prepared from normal heparinized (10 U/mL) venous blood by a 1-step Ficoll-Hypaque separation procedure (15, 16), yielding approximately 98% neutrophils; greater than 95% viable as determined with trypan blue containing less than 50 pg/mL of endotoxin. After separation, neutrophils were washed with Hank's balanced salt solution with heparin (10 U/mL) 3 times. After the third wash, neutrophils were resuspended in HA buffer, which was Hank's balanced salt solution supplemented with 0.1% human albumin (Bayer Healthcare). Neutrophil experiments were completed in HA buffer.
Freshly isolated human neutrophils (4×10^6 cells/mL) were treated with TNF-α(10 U/mL, Peprotech) twenty minutes prior to binding studies and transferred to a 96 well plate (Multiscreen® HTS FC by Millipore, Billerica, Mass. 1.2 μm glass filter type C, 50.0 μL, 2.0×10^5 cells/well). […] The bounded radioactivity remaining on the membranes was measured in a gamma counter. Specific binding was calculated as the difference between total binding and nonspecific binding at the highest concentration. […]

A short description of series [2]: Partition coefficient (octanol/water). The class given is physicochemical. The settings on record: average of three measurements. How it is done:
Freshly HPLC purified cFLFLF-PEGn-KTKPPR-^99mTc 8 or 9 (˜350 kBq) in 500 μL of water was mixed with 500 μLof octanol in an Eppendorf microcentrifuge tube. The tube was sonicated for […] and then centrifuged at 4,000 rpm for […] (Fisher Scientific Marathon Micro-A). Aliquots (100 μL) of octanol and aqueous layers were carefully separated and radioactivity of samples were counted. Log P is derived as the log of the ratio of radioactivity in octonol to radioactivity in water. The measurement was repeated in triplicate and data presented is the average of three measurements.

The next series is described as follows: Blood clearance. The class given is in vivo. The settings on record: mouse, whole blood, intravenous, control mice (n=3), tail vein injection, mono-exponential clearance; read-out: elimination half-life for blood clearance (T1/2). The method, then: Blood kinetics of cFLFLF-PEG12-TKPPR-^99mTc was studied in 3 control (non-inflamed) mice. Approximately 50 μL of blood from the contralateral tail vein were collected in capillary tubes at 15, 30, 45, 60, 120, and 180, 360 min after tracer injection (0.37-0.74 MBq). The capillary tubes were placed in a vial that was weighed beforehand and afterward. Activity in each blood sample was measured in a radioisotope calibrated well counter (CRC-15W, Capintec, Inc, NJ), decay corrected back to the time of tracer injection, normalized for injected dose and animal body weight, and expressed as % ID/g of blood.

Another series is described as follows: Biodistribution. The class given is in vivo. The settings on record: normal mice, 18 hours post injection. How it is done: Body distribution of radioactivity was determined in control (n=3) mice 18 h after injection of tracer. After a single blood sample had been taken from the tail vein, mice were euthanized by deep halothane anesthesia. The organs and tissues (ear, heart, lungs, muscle, bone, liver, kidney, spleen, small intestine, and stomach) were collected, rinsed with PBS, wiped with filter paper and weighed in a pre-weighed vial. The radioactivity of each sample was measured in a γ-well counter and decay-corrected back to the time of tracer injection. Biodistribution values are expressed as a percentage of the injected dose (% ID) and normalized by body and organ/tissue mass.

Series [3] deals with PMA-induced ear inflammation (neutrophil accumulation). Nature of the series: SPECT/CT imaging in mouse ear inflammation model (PMA). The class given is in vivo. The settings on record: 27 hours after PMA challenge, 3 hours post injection. The method, then:
A female FVB mouse, 5 month old, with left ear inflammatory lesion was used to preliminarily assess the ability of the cFLFLF-PEG12-TKPPR-^99mTc to detect inflammation as a result of neutrophils migration and accumulation. The animal model is similar to that described by Gross et al. (19). Topical application of PMA (2.5 μg in 20 μl DMSO) onto the left earlobe induces acute dermatitis, manifested by local swelling, erythema and infiltration of neutrophils (20, 21). The right ear served as control and received only DMSO (vehicle). The SPECT/CT imaging was correlated with myeloperoxidase (MPO) activity determined by non-invasive bioluminal-bioluminescence imaging (19).
Twenty-four hours after PMA challenge, 3.7 MBq […] of cFLFLF-PEG12-TKPPR-^99mTc in 200 μl of saline was administered via tail vein. […] All SPECT images were corrected for radioactivity decay but not for gamma ray attenuation.
Co-registration of SPECT and CT images was performed using ASIPRO software (Siemens Medical Solutions USA, Inc., Knoxyille, Tenn.) and a transformation matrix previously obtained with a dual modality phantom. To characterize the accumulation of the tracer in the ears, volume-of-interest (VOI) analysis was performed to identify the number of detected counts originating in the ears. […] This activity was expressed as percentage of the injected dose per mouse body mass (% ID/g).

A further series in a line: Serum stability. It counts as in vitro ADME. The settings on record: fetal bovine serum. The method, then:
Fifty microcuries of the cFLFLF-PEG12-TKPPR-^99mTc was added in to 100 μL of fetal bovine serum (Invitrogen, Grand Island, N.Y.). After incubation at 37° C. for 1, 3, and 6 hrs, aliquots of the mixture was filtered through a […] micro spin filter. The filtrates were analyzed by reverse-phase HPLC with a Bioscan Flow Count Radio-HPLC detector. All of newly formed γ-peaks besides the original cFLFLF-PEG12-TKPPR-^99mTc peak would be considered as degraded products.

The conditions of series [4]: mouse, in vivo; cited from earlier work.
The conditions of series [5]: mouse, in vivo; cited from earlier work. The source holds these as a separate data set.

Read-outs that look alike come from different tables or passages of the source. Square brackets hold non-standard residues; d marks the D form. Peptide text beside a SMILES is read from it. * marks the point of attachment. PEG12 = NCCOCCOCCOCCOCCOCCOCCOCCOCCOCCOCCOCCOCCC(=O)O; PEG4 = NCCOCCOCCOCCOCCC(=O)O; HYNIC = NNc1ccc(C(=O)*)cn1; X1 = O=C(/C=C/c1ccccc1)*

`CC(C)C[C@@H](NC(=O)[C@H](Cc1ccccc1)NC(=O)[C@@H](CC(C)C)NC(=O)[C@H](Cc1ccccc1)NC(=O)/C=C/c1ccccc1)C(=O)N[C@@H](Cc1ccccc1)C(=O)NCCOCCOCCOCCOCCC(=O)N[C@@H](CCCCNC(=O)c1ccc(NN)nc1)C(=O)N[C@H](C(=O)N[C@@H](CCCCN)C(=O)N1CCC[C@H]1C(=O)N1CCC[C@H]1C(=O)N[C@@H](CCCNC(=N)N)C(=O)O)[C@@H](C)O` [ligand 8, cFLFLF-PEG4-TKPPR-^99mTc, metal not drawn] (X1-F[dL]F[dL]F[PEG4]K(HYNIC)TKPPR-OH) came in with a dissociation constant Kd in series [1] of 47.8 nM. The “fold less potent than compound 9” value in series [1] (binding to human neutrophils, ratio of Kd) is given as “roughly 3 fold”. Further, the logP in series [2] is -0.77.

As to `CC(C)C[C@@H](NC(=O)[C@H](Cc1ccccc1)NC(=O)[C@@H](CC(C)C)NC(=O)[C@H](Cc1ccccc1)NC(=O)/C=C/c1ccccc1)C(=O)N[C@@H](Cc1ccccc1)C(=O)NCCOCCOCCOCCOCCOCCOCCOCCOCCOCCOCCOCCOCCC(=O)N[C@@H](CCCCNC(=O)c1ccc(NN)nc1)C(=O)N[C@H](C(=O)N[C@@H](CCCCN)C(=O)N1CCC[C@H]1C(=O)N1CCC[C@H]1C(=O)N[C@@H](CCCNC(=N)N)C(=O)O)[C@@H](C)O` [ligand 9, cFLFLF-PEG12-TKPPR-^99mTc, metal not drawn] (X1-F[dL]F[dL]F[PEG12]K(HYNIC)TKPPR-OH), the half-life in “Blood clearance” was about 84 min. In the series “Biodistribution”, this compound displayed a blood retaining of 1.2 % ID and a liver uptake of 5.3 % ID. In addition, the Kd in series [1] was 15.1 nM. Moreover, the “accumulation of the tracer in the infected ear (left) vs. control ear” value in series [3] was “about 3.15 folds”. The logP in series [2] was -0.89. The stable in serum entry in “Serum stability” (37° C.) is “at least 6 hours”. Moreover, the “fragments of 99mTc labeled peptide by HPLC analysis of serum samples” value in the series “Serum stability” (37° C., 1, 3, and 6 hours) is listed as “no appreciable fragments”.

Consider cFLFLFK-PEG-^64Cu, for which the “circulation time (T1/2)” value in series [4] is 55 min. In addition, in series [5], the blood retaining is on record as 0.2 % ID and the liver uptake is on record as 1.5 % ID.

What is called Kd is the concentration at which binding is half-saturated. Low values mean tighter binding, high ones weaker binding. As usually defined, the logP is the decadic logarithm of the partition coefficient of the neutral form, usually between octanol and water. The low end stands for a more hydrophilic compound, the high end for a more lipophilic compound.

The values are drawn from patent US20130144035A1, “COMPOSITIONS AND METHODS FOR LEUKOCYTE-TARGETING MULTI-VALENT IMAGING PROBES” (priority 2010, published 2013).
